The values below are quoted from earlier work in publication PMC10872408 (Structure (London, England : 1993), 2023).

This data set addresses Gαi3 (Rattus norvegicus) (UniProt P08753). As to conditions: cited from earlier work.

pKd: −log10 of the molar value.

Gαi3 (Rattus norvegicus), sequence (P08753 2-354): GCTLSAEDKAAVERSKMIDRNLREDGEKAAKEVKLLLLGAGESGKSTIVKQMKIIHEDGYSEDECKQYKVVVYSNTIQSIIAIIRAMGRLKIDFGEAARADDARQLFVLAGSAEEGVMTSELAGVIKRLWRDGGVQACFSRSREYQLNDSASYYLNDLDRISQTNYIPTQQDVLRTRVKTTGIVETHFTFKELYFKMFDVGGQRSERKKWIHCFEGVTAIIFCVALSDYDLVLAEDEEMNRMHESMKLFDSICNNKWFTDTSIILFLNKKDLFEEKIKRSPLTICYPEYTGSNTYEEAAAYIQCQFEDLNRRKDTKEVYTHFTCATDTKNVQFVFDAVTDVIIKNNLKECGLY
GINIP, sequence (Q9UPV7 2-400): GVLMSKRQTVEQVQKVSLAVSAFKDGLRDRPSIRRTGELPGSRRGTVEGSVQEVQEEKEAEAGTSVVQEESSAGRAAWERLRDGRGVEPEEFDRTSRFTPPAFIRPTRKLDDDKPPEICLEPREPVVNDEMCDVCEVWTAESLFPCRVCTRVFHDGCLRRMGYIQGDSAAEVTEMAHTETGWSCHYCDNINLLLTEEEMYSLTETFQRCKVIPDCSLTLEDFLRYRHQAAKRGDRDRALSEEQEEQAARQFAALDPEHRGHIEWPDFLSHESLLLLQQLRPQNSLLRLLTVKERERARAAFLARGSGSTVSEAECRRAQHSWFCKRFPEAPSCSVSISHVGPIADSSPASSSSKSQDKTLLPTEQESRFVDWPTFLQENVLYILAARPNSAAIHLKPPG

Broadly, the pKd is the Kd on a negative log10 scale, so that one unit is a factor of ten. Take GINIP (from UniProt Q9UPV7): the pKd was 7.19.
